# Experiment: label from the status in PepcDB records
row,Sequence,protein production
1,MVSTIIISFFIIIIAVVILVLVATRSKSPSSGGRKKVKGRAVLMKEASRRLAQNPHDIEGLFIMGDIYYQDQDWEKAYTAYSALLDRMKPLEMNKQLDVAIRYGICALKTNRLPEAKKGFLLAETINPKNLDVSYNLGYIYYLEKDYEKAVKFFKRTLILEPNSFLATKYLGYTLQHLHKYTEALPALKKALDFKPDDKEVLFAMGECFYETEATDRCLKILNHLRVDPVFGPQASLYTGMIRAKADQLERAIEDFQIGLKHTGIPMDISNELKYRLAQAYIKTQEIGQALHLLKEIQSISPGYKDAATLIMRYQELNKNKNLQIYLMSGQSEFVALCRKIVARFYPKAKVKIVDISVLAAYTDIVAEIDTSRFSDTVIFRFFRSQGTVGELLLRELHARLKEVKGGTGICMSAGTFTEEAVRFSEGRPLDLYDKTRLSNVLNSLK,failed
2,MVSVNLPWELVEEILCRVPPQSLVKFRTVCKQWNSLFDDNKFVNDHFVQSQPQLIFRTESKIYSVAVNFKGPRIEVHELPLAIPGLKSEMPIRLHDYVDCDGLLFCTSYFNGVLIWNPWLRQTRFFPSIHRYPVTYDIGYDNKKQYKMLDYYKCEGDSSIKSIIYEIGLYSKKVKDLESDSTWSIFQSNSVSLNGTLYWAGVDVNNGIFIRSFSFSTEKPRTFCSLPFMYDDDNVLALAVFRKDRLSLLNLCNKTSEIKIWLTKNNINDREVGLEEDVVWINLMTVLIPNFPKFSFYWYNRPDLTYFLDNDDAKRLVICCYDETDQAYIYIVKGDMFKKIKIDQYEVLSDYSRPHFHTYIPSLVRPSRVKEDNKN,failed
3,MVTIPIFLIIIGATMAVVVWSAKRTKSAADFYTAGGGITGTQNGWAIAGDYMSAASFLGISGMISLYGYDGFMYSVGWLVAYITVLLIVAEPCRNAGKYTLGDILSFRTEPKVVRAVCAISVVAVSTFYLTAQMVGAGKLMQLLLGIPYKFAIIGVGILMVGYVVFGGMTATTWVQIIKAGLLMTGAGLLSVLVGLKAGMNPFTFFNDIATNPNIIEHVQKAVLKDPVAVAGFDYGQRFLEPGLFLKNPLDQISLGMALVLGTAGMPHILMRFFTVPTAQAARKSVIVAMFIIGSFYILTTLLGFGAAIHVTPQGITAVDKGGNMAAMMLAQQLGGDISPFLGDLLLAFLCAVAFATILAVVSGLVLAASAAIAHDIYVNVIKDGHADQHEQVMAARITSLCVGAMGIIIGIAAEKQNVAHLVALAFAVASSGNLPVVVMSLFWRKFNTAGVVSGLVVGTVASIALVMVSPNMTYPKVVAADAQKVVTKLEEKQAGGAVLTEKEMKDLDKAKADYAKNKDGKSMLGLDKPLIKLKNPGIISIPLGFLAAIIGCLAFPSRRSEEMFDEIYVRQNTGIGMAKAIDH,failed
4,MVTSEGLASVDSWLYRQGFNVDSWLLSDTFSHDNDLLARALHTTVTAPHTLTPSSAFFDSSAVSHPSSTNTLSSTVSGASDPEIIGGGAKRKRNCLLTDGKAAKRRARASKKSQTTFITADPSNFRQMVQQVTGAKYIDDSSSFGIFDPIVKPEPLRFVNKLPCGPSDRSTAVPMLDTSAFLSNHHQENLAVGNAFSGNSSSVGLPSGKPSATADPGGSAVEFDNYPTFPTLESWKVM,failed
5,MVVAPYLAVAIGGSLGAMSRYLVTIMAQNAWGIKFPYGTLLVNTLGSFLAGFFLIVLVGRFSAEESFRLFLFTGFLGAFTTFSSFAAESLFMFEQGYWFKLMTNILVNNVGSLSMVFIGTLVAKYVLLGHQGSN,failed
6,MVVKMIEKYVEFIGEHELDAIFKIAEKIKDLSILHVNSTKAGGGVAEILNRMLPLMKELGLNVDWKVIKGDNEFFNVTKSFHNSLQNGTGNIPDEYFKIYDKWQEINLSEIPLDYDIMFIHDPQPAGLIKFKKGNSNKWIWRCHIDISNPYPPVWNFLRKYISKYDSMIISVPSFGRDDIEIPQFVIPPSIDPLSIKNRDMSETTILRILYKFGINLEKPLITQVSRFDYAKDPLGVIQAYKLAKRHVDIQLLYVGSPATDDPEGEKVYSEVVKASEGDKDIHLLMLPPYSDLEINVFQTASTVVMQKSIKEGFGLTVSEAMWKRKPVIGGNTGGIPLQVINGITGFLVNSPQGASHYIIYLIRNEEIRRRLGTNAREHIRRNFLITRELRDYLMTIVYVANRGLASLNSHESISNHLEHHHHHH,failed
7,MVVMIKLRDELGTATTDSAQKILLLGSGELGKEIAIEAQRLGVEVVAVDRYANAPAMQVAHRSYVGNMMDKDFLWSVVEREKPDAIIPEIEAINLDALFEFEKDGYFVVPNARATWIAMHRERLRETLVKEAKVPTSRYMYATTLDELYEACEKIGYPCHTKAIMSSSGKGSYFVKGPEDIPKAWEEAKTKARGSAEKIIVEEHIDFDVEVTELAVRHFDENGEIVTTFPKPVGHYQIDGDYHASWQPAEISEKAEREVYRIAKRITDVLGGLGIFGVEMFVKGDKVWANEVSPRPHDTGMVTLASHPPGFSEFALHLRAVLGLPIPGEWVDGYRLFPMLIPAATHVIKAKVSGYSPRFRGLVKALSVPNATVRLFGKPEAYVGRRLGIALAWDKDVEVAKRKAEMVAHMIELRTRSSDWHDQNYEKRKHLLR,not failed
8,MVVMSKVLLNIGCADVDKPGYINVDARKTKVTHLVSNAWDLDCFEENSVHEIYSRHMLEHLNPEYAKLALQKWFYILEPEGKLVVIVPDIEFHARQLLGVSRSSFGDQMEHAFAGFWGWREKERGGSDFDAHQWGYTVATLENEIGAVGFERIERVVEGVDSEPWHLQMTARKPMTSLCCPMDFRGPFPLEHHHHHH,not failed
9,MVVNESMYQLGSVRSAIRELFEYGKKRAAIVGKENVYDFSIGNPSIPAPQIVNDTIKELVTDYDSVALHGYTSAQGDVETRAAIAEFLNNTHGTHFNADNLYMTMGAAASLSICFRALTSDAYDEFITIAPYFPEYKVFVNAAGARLVEVPADTEHFQIDFDALEERINAHTRGVIINSPNNPSGTVYSEETIKKLSDLLEKKSKEIGRPIFIIADEPYREIVYDGIKVPFVTKYYDNTLVCYSYSKSLSLPGERIGYVLVPDEVYDKAELYAAVCGAGRALGYVCAPSLFQKMIVKCQGATGDINAYKENRDLLYEGLTRIGYHCFKPDGAFYMFVKALEDDSNAFCEKAKEEDVLIVAADGFGCPGWVRISYCVDREMIKHSMPAFEKIYKKYNK,not failed
10,MVVRTWRSMQERYNLIGSKCKTCGTVYFPARSVCPECRRKGELEDYKLNGKGKVYTYSVVYAAPKDFEKQSPYVIGIVELEEGTKITSQIDCEPEEVKIGMPVEATFRKIREDGCDGVISYGYKFVPTEQLEHHHHHH,failed
11,MVVSIGVFDGVHIGHQKVLRTMKEIAFFRKDDSLIYTISYPPEYFLPDFPGLLMTVESRVEMLSRYARTVVLDFFRIKDLTPEGFVERYLSGVSAVVVGRDFRFGKNASGNASFLRKKGVEVYEIEDVVVQGKRVSSSLIRNLVQEGRVEEIPAYLGRYFEIEGIVHKDREFGRKLGFPTANIDRGNEKLVDLKRGVYLVRVHLPDGKKKFGVMNVGFRPTVGDARNVKYEVYILDFEGDLYGQRLKLEVLKFMRDEKKFDSIEELKAAIDQDVKSARNMIDDIINSKFEKEG,not failed
12,MVWWWRALGPSGEGQPGPLPSSLFPVIDPSRPTMQDIECLGVYTSGGDAPGMNACLRAVVRTAIANDIAVMGIRRGYEGMIEADFVEMERRSVSNILQSGGTILKSARSEAFRTEEGRRAAANSLRENGIDALVAIGGDGTFRGASKLYDEHGLGVVGCPGTIDNDLYGTDQTIGYDTALNTAIDNIDRIRDTADAHNRLFLVEVMGRDAGFIALNSGIGGGAELILIPETITEMDMVKERILSLMTAQRRSTIVVVAEGDELGGAQGIERALRDDAAFSDIELRSTILGHTQRGGAPTASDRVLASRLGVAAVESLMDGHSDVMVGMTNNEIKLTPLRNVYGRRKSIDYDLLKLTQILS,failed
13,MVYRDDYFIRHSISVSAVIVRAWITHKYSGRDWNVKWEENLLHAVAKNYTLLQTIPPFERPFKDHQVCLEWNMGYIWNLRANRIPQCPLENDVVALLGFPYASSGENTGIVKKFPRFRNRELEATRRQRMDYPVFTVSLWLYLLHYCKANLCGILYFVDSNEMYGTPSVFLTEEGYLHIQMHLVKGEDLAVKTKFIIPLKEWFRLDISFNGGQIVVTTSIGQDLKSYHNQTISFREDFHYNDTAGYFIIGGSRYVAGIEGFFGPLKYYRLRSLHPAQIFNPLLEKQLAEQIKLYYERCAEVQEIVSVYASAAKHGGERQEACHLHNSYLDLQRRYGRPSMCRAFPWEKELKDKHPSLFQALLEMDLLTVPRNQNESVSEIGGKIFEKAVKRLSSIDGLHQISSIVPFLTDSSCCGYHKASYYLAVFYETGLNVPRDQLQGMLYSLVGGQGSERLSSMNLGYKHYQGIDNYPLDWELSYAYYSNIATKTPLDQHTLQGDQAYVETIRLKDDEILKVQTKEDGDVFMWLKHEATRGNAAAQQRLAQMLFWGQQGVAKNPEAAIEWYAKGALETEDPALIYDYAIVLFKGQGVKKNRRLALELMKKAASKGLHQAVNGLGWYYHKFKKNYAKAAKYWLKAEEMGNPDASYNLGVLHLDGIFPGVPGRNQTLAGEIFHKAAQGGHMEGTLWCSLYYITGNLETFPRDPEKAVVWAKHVAEKNGYLGHVIRKGLNAYLEGSWHEALLYYVLAAETGIEVSQTNLAHICEERPDLARRYLGVNCVWRYYNFSVFQIDAPSFAYLKMGDLYYYGHQNQSQDLELSVQMYAQAALDGDSQGFFNLALLIEEGTIIPHHILDFLEIDSTLHSNNISILQELYERCWSHSNEESFSPCSLAWLYLHLRLLWGAILHSALIYFLGTFLLSILIAWTVQYFQSVSASDPPPRPSQASPDTATSTASPAVTPAADASDQDQPTVTNNPEPRG,failed
14,MWESKFVKEGLTFDDVLLVPAKSDVLPREVSVKTVLSESLQLNIPLISAGMDTVTEADMAIAMARQGGLGIIHKNMSIEQQAEQVDKVKRSESGVISDPFFLTPEHQVYDAEHLMGKYRISGVPVVNNLDERKLVGIITNRDMRFIQDYSIKISDVMTKEQLITAPVGTTLSEAEKILQKYKIEKLPLVDNNGVLQGLITIKDIEKVIEFPNSAKDKQGRLLVGAAVGVTADAMTRIDALVKASVDAIVLDTAHGHSQGVIDKVKEVRAKYPSLNIIAGNVATAEATKALIEAGANVVKVGIGPGSICTTRVVAGVGVPQLTAVYDCATEARKHGIPVIADGGIKYSGDMVKALAAGAHVVMLGSMFAGVAESPGETEIYQGRQFKVYRGMGSVGAMEKGSKDRYFQEGNKKLVPEGIEGRVPYKGPLADTVHQLVGGLRAGMGYCGAQDLEFLRENAQFIRMSGAGLLESHPHHVQITKEAPNYSL,not failed
15,MWFQNYLLAKFMMNRKGLMANYRVWRRRWFYPLISVVVAVSLCLGTPLVGRAIDLRPLLLQGVQVLQLSNISDRQEVDLGNQMNQQLRSSEVKISRNAEITRYVDQIGQRLVANSDRPNLPFTFQVVENDAVNAFATLGGFVYIHTGLLKTADNEAELASVIAHEIGHIGGRHLVKQMRQRALASGLASATGLDRNTAVGLGVELALNRPRSRQDEFDADTRGLRTLTRAGYAPSAMVSFMQKLTKGGGSVPAFLSTHPATGDRITSLRRAINSQGSNGRDGLDNAAYRARIRSIL,failed
16,MWKAVMNAWNGTESQSKNVSNIQSYSFEDMKRIVGKHDPNVVLVDVREPSEYSIVHIPASINVPYRSHPDAFALDPLEFEKQIGIPKPDSAKELIFYCASGKRGGEAQKVASSHGYSNTSLYPGSMNDWVSHGGDKLDL,not failed
17,MWKTASDKGLGHLLRDVWSLLNEEERELLDKEIQPFPCKKASTVFSEGDIPNNLFYLYEGKIKILREGVYGRFHISRIVKPGQFFGMRPYFAEETCSSTAIAVENSKVLAIPVEAIEALLKGNTSFCRYFLKALAKELGYAERRTVTLTQKHVRGRLAETLLILKENFGFENDGATLSIYLSREELATLSNMTVSNAIRTLSTFVSERMLALDGKRIKIIDCDRLQKTARSG,not failed
18,MWLGYMNKSIPTTRKTRTFKAMSIEFSAPAKMKIEVWSDIMCPFCYIGKKRLDDALSTFDQAGRIEVEYKSFELMPGLETHPLRSDVEYLADAKGMSLEQARQMNGQVQAMAQATGLEMNPDETIAANTINAHRLTHFAKAHGKQQEVAQELFKAHFVDGKNVDDLDVLVSIAAEVGLDASAAREALESDVYTNEVQQDVHEARQLGVQGVPFFVFDRKYAINGAQQEEVFTGTVEKAFEEWAAENPVSPFEVIDGQSCSVDGTCN,not failed

# Source: a protein production outcome set (Wang et al. 2014)
